Patent publication US20260365740 (published 2026)
Where a chain is given by its changes, count along the chain named. Like-named read-outs stand apart in the source and are kept apart here. One block for each binder: values may come before it.

Tests used:
[1] = target: T1, human TrkA ECD (human); assay: BLI
T1 chain: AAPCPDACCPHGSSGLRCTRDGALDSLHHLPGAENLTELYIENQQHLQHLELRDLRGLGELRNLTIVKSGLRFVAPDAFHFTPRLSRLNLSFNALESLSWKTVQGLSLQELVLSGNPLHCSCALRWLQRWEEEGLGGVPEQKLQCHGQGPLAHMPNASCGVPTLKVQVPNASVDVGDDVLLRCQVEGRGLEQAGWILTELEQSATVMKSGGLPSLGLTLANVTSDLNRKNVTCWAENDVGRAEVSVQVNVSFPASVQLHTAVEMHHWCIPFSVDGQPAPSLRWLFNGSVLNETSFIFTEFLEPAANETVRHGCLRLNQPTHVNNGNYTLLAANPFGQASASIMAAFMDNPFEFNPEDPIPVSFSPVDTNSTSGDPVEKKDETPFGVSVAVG

[2] = target: T1, human TrkA ECD; assay: BLI
[3] = target: TrkA (cell surface) (human); assay: FACS
TrkA (cell surface) (human), sequence (B2R6T5 whole entry): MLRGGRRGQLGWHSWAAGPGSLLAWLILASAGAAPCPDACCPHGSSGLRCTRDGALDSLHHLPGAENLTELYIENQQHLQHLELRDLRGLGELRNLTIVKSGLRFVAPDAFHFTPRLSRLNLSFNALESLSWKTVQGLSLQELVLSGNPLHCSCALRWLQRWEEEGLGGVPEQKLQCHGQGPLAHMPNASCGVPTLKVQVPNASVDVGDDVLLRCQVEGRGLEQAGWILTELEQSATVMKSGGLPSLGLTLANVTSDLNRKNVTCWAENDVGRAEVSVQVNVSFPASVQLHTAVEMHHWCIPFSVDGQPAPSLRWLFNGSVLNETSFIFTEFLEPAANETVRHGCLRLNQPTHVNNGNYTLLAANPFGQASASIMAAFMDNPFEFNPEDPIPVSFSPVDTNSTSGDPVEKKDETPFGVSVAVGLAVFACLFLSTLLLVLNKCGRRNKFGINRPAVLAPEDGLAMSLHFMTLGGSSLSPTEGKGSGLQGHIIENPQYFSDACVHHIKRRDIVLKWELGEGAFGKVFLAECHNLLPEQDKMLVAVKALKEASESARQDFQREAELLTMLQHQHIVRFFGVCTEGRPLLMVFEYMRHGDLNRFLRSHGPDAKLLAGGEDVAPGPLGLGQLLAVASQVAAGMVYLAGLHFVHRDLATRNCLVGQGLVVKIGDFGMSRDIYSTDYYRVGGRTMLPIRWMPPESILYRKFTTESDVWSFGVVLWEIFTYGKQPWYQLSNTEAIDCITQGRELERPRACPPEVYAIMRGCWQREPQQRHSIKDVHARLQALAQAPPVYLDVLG

Kd [1]: 0.771 nM
B1: Chi70D3A6 (antibody, V domains shown)
VH: EVKLVESGGDLVKPGGSLKLSCTASGFTFTYYAMSWVRQTPEKRLEWVATISGGGDTYYLDSVKGRFTISRDNAGNILYLQMSSLRSEDTAMYYCARGVGGNFFDYWGQGSTLTVSS
VL: QIVLTQSPAIMSASPGEKVTISCSASSSVSYMYWYQQKPGSSPKPFIYRTSNLASGVPSRFSGSGSGTSYSLTVSTMEAEDAATYYCQLYHSYTPITFGAGTKLELK

Kd [1]: 1.3 nM
B2: Chi99H4D5 (antibody, V domains shown)
VH: B1 VH with D10G, T23A, T30S, M34I, V37L, T50S, G54N, G75R, F103Y, S111T
VL: B1 VL with Q1D, L4M, F46L, S59A, V74I, L89Q, E105D

Kd [2]: 0.591 nM
EC50 [3]: ~0.289 nM
B3: Hu70D3A6-V12 (antibody, V domains shown)
VH: EVQLVESGGGLVKPGGSLRLSCAASGFTFTYYAMSWVRQAPGKGLEWVSSISGGGDVYYADSVKGRFTISRDNAKNTLYLQMNSLRAEDTAVYYCARGVGGNYFDYWGQGTLVTVSS
VL: DIQMTQSPSSLSASVGDRVTITCSASSSVSYMYWYQQKPGKAPKPLIYRTSNLASGVPSRFSGSGSGTDFTLTISSLQPEDFATYYCQLYHSYTPITFGQGTKLEIK

Kd [2]: 0.753 nM
EC50 [3]: ~0.362 nM
B4: Hu99H4D5-V6 (antibody, V domains shown)
VH: B3 VH with T30S, M34I
VL: B3 VL with L89Q
